# From PMC7959301
# Biological target: SpyCatcher-fused ferritin protein (Streptococcus pyogenes | not stated)
# Experiment: SDS-PAGE of the covalent SpyTag/SpyCatcher adduct
substance,measurement,value
6 × His-SpyTag-AE2F SOSIP.664,percent of input conjugated,80 to 90%
